The values that follow come from paper PMC9989923, “A curcumin analogue GO‐Y030 depletes cancer stem cells by inhibiting the interaction between the HSP70/HSP40 complex and its substrates” (FEBS Open Bio, 2023).

The target of experiment [1] is T1, recombinant human HSP40/Hdj1 (dnaJ‐B1) protein (human, UniProt P25685 1-340).
T1 construct: recombinant human HSP40/Hdj1 (dnaJ-B1, gene DNAJB1), bought from Enzo Life Sciences; No catalogue number printed; source: bought: Enzo Life Sciences
The experiment can be described thus: ELISA; substrate-binding assay: CMLA immobilised at 500 ng per well; 50 ng per well HSP70-1A or dnaJ-B1 in 20 mM Tris-HCl pH 7.5, 20 mM NaCl, 10 mM MgCl2, 0.2% BSA, 60 min at 30 °C; detected with anti-HSP70 or anti-DNAJB1 pAb and alkaline phosphatase-labelled secondary antibody; with dimethylsulfoxide, GO-Y030 or PFT-μ. The note with it: both partners purified.

Experiment [2] concerns the target T2, recombinant human HSP70‐1A protein (human, UniProt P0DMV8 1-641).
T2 construct: recombinant human HSP70-1A (gene HSPA1A), bought from StressMarq Biosciences; No catalogue number printed; source: bought: StressMarq Biosciences
Described as above. The note with it: both partners purified.

T2 sequence (P0DMV8 whole entry): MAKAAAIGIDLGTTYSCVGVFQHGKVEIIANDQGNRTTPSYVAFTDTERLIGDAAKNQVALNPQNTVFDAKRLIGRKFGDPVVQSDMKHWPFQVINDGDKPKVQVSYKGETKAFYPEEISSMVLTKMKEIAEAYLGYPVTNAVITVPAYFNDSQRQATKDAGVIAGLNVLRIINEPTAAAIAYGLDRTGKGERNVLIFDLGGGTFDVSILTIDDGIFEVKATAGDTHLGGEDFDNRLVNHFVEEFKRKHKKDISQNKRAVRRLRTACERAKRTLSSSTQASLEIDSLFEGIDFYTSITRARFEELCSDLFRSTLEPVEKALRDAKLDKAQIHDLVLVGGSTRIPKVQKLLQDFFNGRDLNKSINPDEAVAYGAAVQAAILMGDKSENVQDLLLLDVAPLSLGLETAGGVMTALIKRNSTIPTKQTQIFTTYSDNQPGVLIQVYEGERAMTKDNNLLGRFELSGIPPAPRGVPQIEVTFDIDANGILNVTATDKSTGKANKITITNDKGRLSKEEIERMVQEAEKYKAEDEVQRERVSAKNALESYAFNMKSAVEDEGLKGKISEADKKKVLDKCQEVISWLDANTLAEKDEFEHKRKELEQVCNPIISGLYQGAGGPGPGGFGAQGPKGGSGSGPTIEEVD
T1 sequence (P25685 whole entry): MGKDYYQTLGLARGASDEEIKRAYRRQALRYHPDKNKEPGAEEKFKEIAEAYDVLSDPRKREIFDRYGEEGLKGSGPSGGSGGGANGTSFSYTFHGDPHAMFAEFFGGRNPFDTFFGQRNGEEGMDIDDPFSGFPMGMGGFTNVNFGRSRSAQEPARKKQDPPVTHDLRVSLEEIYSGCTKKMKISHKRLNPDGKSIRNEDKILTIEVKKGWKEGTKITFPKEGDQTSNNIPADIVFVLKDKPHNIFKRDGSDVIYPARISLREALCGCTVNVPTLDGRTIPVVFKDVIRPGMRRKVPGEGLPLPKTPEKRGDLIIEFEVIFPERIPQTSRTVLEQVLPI

B1: carboxymethylated α‐lactalbumin (natural protein, bovine, UniProt P00711 20-142, looked up)
chain: EQLTKCEVFRELKDLKGYGGVSLPEWVCTTFHTSGYDTQAIVQNNDSTEYGLFQINNKIWCKDDQNPHSSNICNISCDKFLDDDLTDDIMCVKKILDKVGINYWLAHKALCSEKLDQWLCEKL
modifications: reduced with 20 mM dithiothreitol in 8 M urea and alkylated with 40 mM iodoacetamide (called carboxymethylated); permanently unfolded
notes: also called CMLA; carboxymethylated lactalbumin; source: bovine α-lactalbumin bought: Sigma-Aldrich; reduced in 8 M urea with dithiothreitol, alkylated with iodoacetamide, dialysed against PBS
As to B1, the binding result in experiment [1] and in experiment [2] was “binds” each time.
